The data set can be described thus: protease stability score; higher = more stable; yeast display proteolysis, trypsin and chymotrypsin.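 Note: relative to predicted unfolded state with 0 unfolded-like and 1 meaning tenfold more protease.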
The sequence “SEDDEEVRIALDIQRELFRTGDWRSIEEFLDPNVRVHVGDKEIHGMEELLRYYTHIMNHLGAKHWHVTEYTSIGDFVHIDGEFIQGDKTFHLKIHLLKFNGRWIIHSRIID” registered a protease stability score of 1.22.
The same measure for “SEDDEFIRFVSEIIEHILETGDEESLIKLADPNAQFIHIINGREIRYHGRHIFIEWWRRLGIDHLKIEDVRVEQQGDKMRTDFRVILRVGDKTIDSKLHFLIRKVDGKWHVESIKVEHR”: 2.27; for “SEDDEFYKHAFNLMIRVLETGDEELFTKMADPNVRSEINGQDIHGREMLSHIVLEEVRRADHIEFRIDHFRVIGDKVEHDGTKILNVNGVNIELRFHLHSVKVNGKWILKSERVD”: 0.869.
The same measure for “SEDDEHLREFIEIRLHAIETGDWRRMEHLFDPNVRFEFNGVELHGMETVARRLSRIDHEWSEIRINRHRLFNGVLHLDTRLDLRVHVDGKEIRVEHTTRIVILKFNGRWLITEMTIE”: 0.748; for “SEDDEHMKEIWRILQHSLETGDFHILSRMADPNAKFDIGDKEIVGMHLWIEELLRYKNRQIRVHYHEMRVYDGKIDSRERYDVKYGDKELTTELRVHARKIDGRWVLEDVRVH”: 0.668; for “SEDDEHSRDAFEIFMRLIRTGDWHHLLNLLDPHVRIDFNGREHIGREEATRILVEWRIRNIRLRHYDMVNGRAHFHTESDVEFNGRRDKIEIHMVVLKIDGRWFIHSMIIH”: 2.42.
The same measure for “SEDDEIKKHVAERWLKRLETGDEKTLSKLLDPDVRLHINGRTLHGREEVVHELHKWYYELGVDHVILRHIDHVNGQLRLHNEIRFENRHTSEILVITKVDGQWIVKYIEIRDH”: 1.53.
As for “SEDDEILERMLRELIHLIRTGDEDSIREMADPNVRLIINGKEFHGMEEYIKTWHRILERFDHLRHVELHDEHRFDGRVRIWGTLNHRIGDKHTRFTVHIVALKFNGRWILKSEEIT”, the protease stability score turned out to be 1.36.
The same measure for “SEDDEITHYILQLWLDLVQTGDEEKLTDLHDPHVRNRINGREKHGRERAAELLSRLKKALGIDHIHRLMIEDFRIQGEKIQLHVRIKQEINGQEFTRSIELILLKINGRWSVESIDIR”: 1.42; for “SEDDEKIERWLHIILRAFETGDERILQELMDPNTRMDINGVEIHGRERVTKELHRIRKELGADHIEVRLTDEKRVNGRLRLHTQLHFHQGNKLIIIESRILFEKYDGKWMIESMSEK”: 1.05; for “SEDDEKLEQIIELLDKVMKTGDERAYNELMDPNTRYQVGDKEFHGMEWWSEIYSRHEKKLGIEKVEVDIENHHVQGDKVTVHGRVNINGREHEYRFVLTKVDGQWRLREENIK”: 1.15.
“SEDDEKLKDFLRMLIEVILTGDEERFFELLDPHARLEYGDKEFHGREVIYHWFFNEFRRIKGLVFRNIHLREHDVVDGRLQIDLEVHIIFNGKTRSHDIHFVATKIDGRWILRTESIK” yielded a protease stability score of 2.33.
The same measure for “SEDDEKSQEIMHRFIKYYETGDWKRLYELADPNARSYYNGKERHGMDVIRDLIEKVKNVKLHIRRIESDVQGDKINLHLDVEVDIDGQIMTLHDTVHAEKIDGRWRIRIIFLHVK”: 1.36; for “SEDDEKVREAFELWARLVLTGDEEIIEKMVDPHMRIEIGDKELHGRDELRRWIREIRIRDIDVHDVRVQGDKAESDLKVRMDIDGVETRRHTHLIMHKFDGRWIIESIDVR”: 1.36.
With “SEDDELAHLFFELFLKLIQTGDEDKLLDLMDPNAKSEYNGVILHGREHKEHWRRRFKNIRVHYRHVEIHFQGNYLHIRIDGSLDINGQEIDSHVRLHTEKVNGKWIVRSMHFHYT”, the protease stability score is 1.25.
“SEDDELIKKYIKRWLHDLVTGDEDSLEELIDPNARLDINGKELIGREWVERVTKELRIEHINPRSVRSINGKVEIETEVHVNVNGVKIILDRHLDIHKVNGKWIVKEVRVK” registered a protease stability score of 1.14.
The sequence “SEDDELSKHAFDMLRDSIHTGDEHLNNKLFDPHVRLYYGDKLLIGREHLTRLLFFWAKELRIELRVRHYESQGEKVDIHVELIMRVNGREQKHDVILYLEKVNGRWIMHSIEIR” yielded a protease stability score of 0.775.
“SEDDELVTRMFKVWLHDWITGNEEQIHRMVDPDYRLEIGDKDIHGMEASLHWLRKIKNIQFRFHLEHVDVVNGKAKSEGRYIEEFEGVKIDRDVELYLHIVDGRIKSMSIHKR”: the protease stability score stood at 1.29.
Consider “SEDDEMLKLFFELVHRFHLTGDETNHLNNMDPHARMNAENWRRHGRHALEQLRTRFDHIDHVHLDHYETFDGRLILHVTVDGQFDGVRDRNTLHIVMKKINGRWIMEELRIQ”, for which the protease stability score was determined as 1.23.
The same measure for “SEDDEQAHRTIEIWLRASRTGNEEELERLADPHDKIEFNGREHHGREEFLKIMKHLRVHHMDVRDRTLIGDKINIDVILDLHFNGRRHIIELTTILVKINGRWFFKSWIFI”: 1.21; for “SEDDERMERLTRILLEALETGDEDALRELIDPNARVDVNGVRDHGWKEVRKLLKELGVDHIKIHDHHIQGEKSRIDGEIHFNGKSERVTILWIMINGRVKFMSVKHT”: 1.79.
The same measure for “SEDDERMKKLLSDIWRLLMTGDEELWAKLADPNVRVDVNGRERHGREEVVKLLRELRHERRGRREEHHTVEDFRIYGDYSEVDYRYWVVFNGQREDVTMHIHIQVVNGRLKEIEIKMR”: 1.51; for “SEDDERQRWIIEELVKTERTGDEHRRMELADPDYRLEIGDKEVHGMEEASRILHDELFNLGINHMHIKEWRVQGDKVHLEGLMVVGDKTHRVRIHYVIVNGRVKTLKWRID”: 1.33; for “SEDDERSEKAAEKWLHNFVTGDFKEMSDNLDPNTRLHVDGKDFVGMELVLKIFEDLWDHLGVDHVLINDSHVHVIDGKLHSHLDVTEEVNGRRRRVEIIIIAVKVNGRWRQKEVHIMFR”: 0.794.
The same measure for “SEDDERWEKFMEELERAAHTGDWRFFKKMIDPEVRIDINGKEIIGMDEYIRHEKERLKRLGHTNVDIQIIIHRTERQGDKLDVDTEIRIHIGDKTITFRMTLILIKVNGVWLIKAMIIH”: 1.56.
With “SEDDESLKRHIDLLLRVLETGNEEDLFRMIDPDAKMDWNGVDNHGMELIHKVWHELGLSNVRSHTEDFRVVGDKAEIHIRVEFNGRHHRVEIHTLKINGRWRVRRFHIR”, the protease stability score came out at 2.4.
For the sequence “SEDDETIERASRLLVEDHDTGDWESWEKNADPNMRLVIGDKDVVGRENVVEHLHRLRKKMGVKHVHLRVESIEVQGDKIRQDGRLLIIVNGQELRIEVRIVAIKVNGQWINRMVDVK”, the protease stability score turned out to be 1.08.
The same measure for “SEDDETSSKAMHRILEIFETGDWKKLAKLADPNVRLRIDGQDVHGRELFTKIFRTELERFGHEQFEVHKSHEDVQGDKLELHTLVIYGDKRERIEIHSVKFNGVWLISTMRIDRH”: 0.935.
With “SEDDETVIRMTHIILHAIFTGDEHITERLMDPHAKVTVGEFDTHGWEELDRFWKEMRMKRLKIRRIDFRWVNGRILSEIVVELDGIVNGRERKITMLIVIIIDKIDGRWVVTEFHFRIE”, the protease stability score was 1.43.
The same measure for “SEDDEWLHNFIERLLHTILTGDEHIFSELADPNVRLDIGDKELHGWHLIVRHYIDEFRQFKGVRVHIRIRRFTQIGDKVHYDGELIFVIGDKTIIRELHLVVVKIDGRWKLEHFEIR”: 2.74; for “SEDDEYSELFVKTWFEILRTGDEEKIRRMLDPDARSTINGKDLHGRERIEEHLHELFLRLGLSNVKVHLHDYRFIGDKLHLHGKLTINGQEFDTKVDAWKFNGRWFMHQIHLR”: 1.39; for “SEDDHELEHAARRHFRDFWTGDWKSISRFLDPDAKVELLVNGQHIEIHGREQIIEQMLRIPNLRFELKRVHTEIYGEKMHVHVRGVVEFDGVREDVVLIFIFEKFNGRWHISKESREFR”: 0.35.
The same measure for “SEDDHELEKLIRLWYDSVLTGDERTINELFDPNTRLEINGKVLHGMENFHRFVHTFLHHIRLKRIEIEDIKYINGVAHIDSRMVGDINGKDVRYETQFLVQKVDGKWVIKAVIIR”: 2.08; for “SEDDHELKEELKIIMKSSLTGDEDTLNRLADPHARIHQGEFNLHGREEFSRLFVELRMHDIRIEDYEVIDGRVEVDIRLNIHYNGKRYIKVTRSVFRKVDGRWLIEEVRYD”: 0.494; for “SEDDHERHRFLELIKHNHKTGNEENIYRMADPDVRLHIGDKEFHGMEHHMEFLREWLDRLGIDKVEFQVERIHVQGDKINVDVNLNVNGKHYRVILYLIKIDGRWRIKLLEIR”: 0.884.
The same measure for “SEDDHMAELASRLVHERVKTGDPRVVDELLDPNVRLEYGDKEWHGREEFRKFLRHLRLHDVHIRSYEIQGDKVYIDGRVDGEVNGKRSLLETHIYAKKIDGRWLETSVVMK”: 0.561.
The sequence “SEDDHRAHEWFRIVFHWLLTGDEEHFDRYADPHTKVDINGVEFHGREEVRRWIYEIRLKDNRIRSVRAVGEKNESDGHRNGHIGDKHIVTDVEVRLHVVDGRIKSIHIIIH” returned a protease stability score of 0.981.
Take “SEDDKMQEIAVELLEHTLKTGDEHTSKKLVDPHVRLQIGDKEHHGRDEVTRWLTELAQRADHMHIEIKDMFNVNGVVIMHGTLKIHIGDKELRLDVEWIILKYNGKWLIHSIHIR”: the protease stability score is 1.94.
The same measure for “SEDDKREQDYHHYMMEIILTGDFKELFDLADPNVRLRIGDKHFHGRERMLDWYKHLSDRYKNARIHLHKKDYIGEKVIFHEIIHWNGKEVELHINMVIVNGRIRSIHVEDNER”: 1.39; for “SEDDKRLREIADLWKHAFLTGDFNLIHKLMDPHARWVVNGQHVHGMEEWEHFLERIDVFRIESSRTDHIEVYGDKVQIDGHSNVKIQIGDKKIDLITRMEIRLIIINGRYHQVEHIVR”: 0.707.
The same measure for “SEDDKVVEEIARLWLHWVLTGDEEHLRELLDPHVRLHIDGRTYIGREEFLHKFHELRIHRFELKSIHVIGDKAQVDGHQDYKYNGKRIHLDTKVDLVVVDGVMHEIHIHLK”: 1.78; for “SEDDNLNEWMMRVWLTTLRTGDEKNTERLLDPNARLHVGDKDFHGRELLTKHFYDEVETLGFKHSELKRLLYQGEKMIIHVEVNINGVDIHIDVHIRKIDGRWYIHQVHVR”: 2.14; for “SEDDNMAEHVLRYFIEHHLTGDFDSILKLMDPNMRLEVNGREHWGRKRWSEHLLRMGFDHVDIEEHRINSYGNFAYEIIHGRYHINGQEINITLIINVEKVNGKWIIREVTIVKR”: 1.74.
“SEDDQLVRELMRRIMKNIMTGDEEKHLNLVDPHARTIFDGREYHGRELYTMVFRILYNRIDHWTDLKVEHVSIYDGVIEIHVRADVDINGKRTEITMIIFVNKVNGRWIIEYVVYS” yielded a protease stability score of 1.37.
The same measure for “SEDDRDAEKMSKDWIHLMLTGDEDHLRELLDPNVRMEQGDKEFIGRELLVEVFSRTVKHLGIKHIQLEESRTNVQGEKVIVILIMDYRAENRRVEFHIHLIVDKVNGRWLVQSVRFRFK”: 1.25; for “SEDDRDANNMREILQHLWFTGNEEEFLRLLDPDTLFHVNGQQKVGRERVEELLHHLLEKLGADHEEIHDWEVRLQGDKLDIHVHIRLIIGDKEFRIHIDFHIYKIDGRWRIHSVKLEIK”: 2.1.
In turn, “SEDDRDSKEAKHLLHELIRTGDEDELVKLLDPNMIIIVGDKEYIGWEQAVRLLRELNRRFDHVELRFRDIEIQGEWVDTDIELIYRFDGRETRIDTRFIAYKVDGRWFNHHIEIK” had a protease stability score of 0.582.

These data come from the NTF2 design screens of Basanta et al. (2020).
